This is an account of results in publication PMC9477746, “Mechanism of AAA+ ATPase-mediated RuvAB–Holliday junction branch migration” (Nature, 2022).

First the molecules themselves.
B2: N-terminally truncated RuvB (16-333) from S. thermophilus (domain or fragment, UniProt Q03IE9 16-333, looked up)
chain: VERTLRPQYFKEYIGQDKVKDQLKIFIEAAKLRDEALDHTLLFGPPGLGKTTMAFVIANEMGVNLKQTSGPAIEKAGDLVAILNDLEPGDILFIDEIHRMPMAVEEVLYSAMEDYYIDIMIGAGETSRSVHLDLPPFTLVGATTRAGMLSNPLRARFGINGHMEYYELPDLTEIVERTSEIFEMTITPEAALELARRSRGTPRIANRLLKRVRDYAQIMGDGVIDDKIADQALTMLDVDHEGLDYVDQKILRTMIEMYGGGPVGLGTLSVNIAEERETVEDMYEPYLIQKGFIMRTRTGRVATAKAYEHMGYDYTRDN
notes: RuvB, Holliday junction AAA+ ATPase, Streptococcus thermophilus, residues 16-333; domains RuvB^L 21-181, RuvB^S 182-254, RuvB^H 255-330; C-terminal TEV site, linker and HA tag; TEV cleavage done during dialysis, so residues of the TEV site may remain at the C-terminus; Tetrameric by gel filtration in solution, hexamer on DNA in the cryo-EM complex; also called RuvB (S. thermophilus); RuvB motor; …

The target of one data set is T1, RuvA (Salmonella typhimurium, UniProt P66746 1-203).
T1 sequence: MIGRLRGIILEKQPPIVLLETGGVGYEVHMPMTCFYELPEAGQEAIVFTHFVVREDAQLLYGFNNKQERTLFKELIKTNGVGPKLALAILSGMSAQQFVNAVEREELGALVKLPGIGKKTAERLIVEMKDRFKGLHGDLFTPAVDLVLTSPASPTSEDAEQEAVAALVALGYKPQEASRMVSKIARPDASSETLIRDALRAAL
The experiment in a line: EMSA; 5 mM EDTA; complex II (two tetramers) saturated at >500 nM RuvA; complex I (one tetramer) at <200 nM; EMSA: 30 mM Tris-HCl pH 8, 5 mM EDTA, 1 mM DTT, 100 ug/ml BSA, 30 min at 37 C; 6% PAGE at 4 C in 0.5x TAE. The settings on record: protein: recombinant; tags: C-terminal His4; chain copies: 4; label: 5'-32P on one strand; four-way junction 1:2 2:3 3:4 4:1. On the technique in general: In EMSA bound probe runs differently from free probe, usually more slowly.

Data set [1] deals with the molecule itself. The experiment in a line: cryo-EM structure; in vitro reconstituted RuvAB-Holliday junction hetero-complex: SEC-purified RuvA-HJ mixed with RuvB, 10 mM MgCl2, equimolar ATPγS and ADP (1 mM), 37 °C 10 min, then on ice about 5 h before vitrification (dataset t2).
Data set [2] deals with the molecule itself. The experiment in a line: SEC; Superdex 200 10/300GL, 100 mM NaCl, 1 mM EDTA, 0.5 mM DTT, 5% glycerol, 100 mM Tris-HCl pH 8; each protein alone; mass estimated from retention of a gel filtration standard.
The target of data set [3] is B2. The experiment in a line: cryo-EM structure; same reconstitution of the RuvAB-Holliday junction hetero-complex, on ice 30 min before vitrification (dataset t1). The settings on record: both partners purified.

B1: HJ-Y2Ap (immobile Holliday junction) (structured_DNA)
DNA 1: CTCATCGAGAATCTGCCGAGAGACCGAGCAGAATTCTATGTGTTTACCAAGCGCTG
DNA 2: CAGCGCTTGGTAAACACATAGAATTCTGCTCGGTCTGAGCCGTCTAAGAGACCTAG
DNA 3: CTAGGTCTCTTAGACGGCTCACTGGCTGTGGGATCCGAGCTGTCTAGAGACATCGA
DNA 4: TCGATGTCTCTAGACAGCTCGGATCCCACAGCCAGTCTCGGCAGATTCTCGATGAG
Take B1: the binding result in the data set with RuvA is on record as “binds”.

Broadly, the stoichiometry N is a count of units in the complex or per binding partner. On to B2, for which the “stoichiometry N” value in data set [1] was 6; in data set [2], 4.

B3: RuvA from S. typhimurium (natural protein, UniProt P66746 1-203, looked up)
chain: MIGRLRGIILEKQPPIVLLETGGVGYEVHMPMTCFYELPEAGQEAIVFTHFVVREDAQLLYGFNNKQERTLFKELIKTNGVGPKLALAILSGMSAQQFVNAVEREELGALVKLPGIGKKTAERLIVEMKDRFKGLHGDLFTPAVDLVLTSPASPTSEDAEQEAVAALVALGYKPQEASRMVSKIARPDASSETLIRDALRAAL
notes: RuvA, Holliday junction branch migration protein, Salmonella typhimurium; three domains (I, II, III); Tetramer in solution by gel filtration; two tetramers (eight chains) on the Holliday junction in the cryo-EM complex; Cloned into pET-52b(+) by NcoI and SacI; also called RuvA (S. typhimurium); recombinant S. typhimurium RuvA; source: E. coli BL21(DE3), purified (HisTrap, Superdex 200 SEC)
With B3, the entries for the “stoichiometry N” value in data set [1] and in data set [3] were 4 and 1 RuvA^D3 per RuvB hexamer, respectively.
